Data as given in paper PMC6746316.

Molecular target: Xenopus tropicalis ALDH16B1 (Xenopus tropicalis)
Test: SEC

stoichiometry N: 2
Substance: Xenopus tropicalis ALDH16B1 (enzyme)
